Data published in the supplement of paper PMC9732359.
± gives the uncertainty stated by the source.

Assay: protein stability index of a GFP-peptide fusion (yeast GPS) (PSI 1-4); higher = more stable; sorted into four equal gates, so the index is relative within each strain
Outline: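 Tiled 17-residue yeast protein peptides were fused downstream of GFP in a plasmid that also expresses Cherry, and the pooled library was carried in yeast. Mid-log cultures in leucine-free medium were sorted into four equal gates by GFP/Cherry fluorescence ratio, and plasmids from each gate were PCR-amplified and Illumina-sequenced, with reads assigned to strains by barcodes. The protein stability index for each peptide was each gate's read frequency times its gate number, summed.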

| Sequence | protein stability index (doa10∆) | protein stability index (pdr5∆) | protein stability index (san1∆) | protein stability index (ubr1∆) |
| --- | --- | --- | --- | --- |
| DIPTIADEHFWADNYER [BRN1] | 3.14 ± 0.2 | 3.18 ± 0.1 | 3.34 ± 0.069 | 3.22 ± 0.04 |
| DIRKFLDGIYVSHKGFI [RPL9A] | 1.39 ± 0.1 | 2.08 ± 0.077 | 1.77 ± 0.16 | 3.23 ± 0.1 |
| DKKASMIISGSRDKTIK [ASC1] | 2.2 ± 0.17 | 2.54 ± 0.092 | 2.63 ± 0.096 | 1.96 ± 0.079 |
| DKLLDPTTVSYIFCISR [SCL1] | 2.97 ± 0.045 | 3.1 ± 0.06 | 3.181 ± 0.029 | 3.22 ± 0.051 |
| DKLSVSEISDGKLKRCS [SIN4] | 3.27 ± 0.15 | 3.38 ± 0.13 | 3.15 ± 0.1 | 3.6 ± 0.11 |
| DKSLDSSNASFNNQGKL [MED1] | 2.98 ± 0.045 | 3.07 ± 0.043 | 2.68 ± 0.035 | 2.99 ± 0.045 |
| DKYHEQWIKFLLHTLYL [SSN8] | 2.62 ± 0.1 | 2.2 ± 0.076 | 1.93 ± 0.13 | 2.43 ± 0.052 |
| DLDETTQTFNGSIFTHE [YML031W/NDC1] | 2.96 ± 0.05 | 2.85 ± 0.037 | 2.85 ± 0.038 | 2.92 ± 0.033 |
| DLETLTMHTKTYAAEIA [RPL32] | 2.99 ± 0.061 | 2.74 ± 0.054 | 2.42 ± 0.053 | 2.63 ± 0.059 |
| DLGIKYDPSIGIFGMDF [RPL11A] | 2.85 ± 0.04 | 3.06 ± 0.041 | 2.96 ± 0.039 | 3 ± 0.037 |
| DLIHKSEAFPSLQSCSV [SMC4] | 2.53 ± 0.085 | 2.32 ± 0.061 | 2.47 ± 0.067 | 2 ± 0.041 |
| DLISEILKWVQWSRIVL [MED1] | 3.48 ± 0.12 | 3.33 ± 0.11 | 3.08 ± 0.064 | 3.54 ± 0.061 |
| DLKASQRVCLRSDSYML [RPT6] | 2.92 ± 0.1 | 3.08 ± 0.077 | 2.92 ± 0.075 | 2.82 ± 0.051 |
| DLKFEPQGRQSTTFADC [RPC40] | 3.37 ± 0.19 | 3.3 ± 0.29 | – | 3.15 ± 0.075 |
| DLKKFTSTITKYKQLLL [RPN3] | 2.92 ± 0.089 | 3 ± 0.055 | 2.91 ± 0.066 | 3.07 ± 0.045 |
| DLKKKLNSLKDERSQGE [SMC4] | 3.43 ± 0.14 | 3.16 ± 0.25 | 3.06 ± 0.16 | 3.71 ± 0.25 |
| DLKLLFNTEAEQTVSAV [RGR1] | 2.84 ± 0.088 | 2.93 ± 0.085 | 3.33 ± 0.11 | 3.19 ± 0.066 |
| DLLKFENISLAEFILKN [BRR2] | 2.94 ± 0.082 | 3.3 ± 0.09 | 2.82 ± 0.062 | 2.83 ± 0.074 |
| DLLVIDSHKRIPDMSKN [SNU114] | 2.99 ± 0.073 | 3.09 ± 0.073 | 2.93 ± 0.053 | 3.24 ± 0.056 |
| DLNNAVQKRDEVKEQLG [SMC4] | 2.95 ± 0.055 | 2.99 ± 0.056 | 3.15 ± 0.046 | 2.83 ± 0.042 |
| DLNTRISVIETIRVVTE [RPN5] | 1.64 ± 0.15 | 2.04 ± 0.12 | – | 2.97 ± 0.15 |
| DLPDTEGLELLGWIHTQ [PRP8] | 2.75 ± 0.093 | 2.79 ± 0.085 | 3.22 ± 0.051 | 3.27 ± 0.045 |
| DLPISSTDNEAITISNS [SMC1] | 2.8 ± 0.079 | 2.89 ± 0.093 | 2.7 ± 0.054 | 2.91 ± 0.059 |
| DLQYLGEFSGKNFSPTK [RRP6] | 3.46 ± 0.063 | 3.25 ± 0.083 | 3.19 ± 0.04 | 3.24 ± 0.038 |
| DLRLIKVPQQAAGKRIS [SMC1] | 1.36 ± 0.099 | 1.31 ± 0.2 | 1.1 ± 0.13 | 1.15 ± 0.07 |
| DLSADKPTSPFIDSICK [SRB8] | 2.12 ± 0.034 | 1.88 ± 0.039 | 1.76 ± 0.048 | 1.93 ± 0.032 |

| Sequence | protein stability index (doa10∆) | protein stability index (pdr5∆) | protein stability index (san1∆) | protein stability index (ubr1∆) |
| --- | --- | --- | --- | --- |
| DLSLNIHPIPSVTVSQG [YMR129W/POM152] | 1.98 ± 0.055 | 2.43 ± 0.057 | 1.98 ± 0.074 | 2.17 ± 0.039 |
| DLSYNFNVHEVPRAALE [YMR129W/POM152] | 2.91 ± 0.057 | 3.04 ± 0.069 | 2.85 ± 0.054 | 2.92 ± 0.049 |
| DLTFKLADILKANISLE [RPO21] | 2.49 ± 0.068 | 2.68 ± 0.087 | 2.46 ± 0.067 | 2.32 ± 0.047 |
| DLTQLLEKERSILDDIK [SMC4] | 3.22 ± 0.14 | 2.98 ± 0.08 | 2.66 ± 0.13 | 3.16 ± 0.043 |
| DMAILERYYELAFDKLN [ARP7] | 1.3 ± 0.09 | 1.6 ± 0.1 | 1.31 ± 0.16 | 1.54 ± 0.18 |
| DMAKLKKMMNTSDSEST [SWI3] | 1.81 ± 0.059 | 2.27 ± 0.05 | 1.94 ± 0.073 | 1.91 ± 0.036 |
| DMDAESNESQNGKDSEI [SMC3] | 3.42 ± 0.12 | 3.22 ± 0.096 | 2.89 ± 0.1 | 3.31 ± 0.038 |
| DMKEYDSDKGSKLNELK [SMC2] | 3.25 ± 0.14 | 3.28 ± 0.1 | 3.27 ± 0.072 | 3.29 ± 0.14 |
| DMLEHINLAMNESSLAL [SRB4] | 1.49 ± 0.094 | 1.28 ± 0.11 | 1.25 ± 0.15 | 1.52 ± 0.092 |
| DMPSLRLIDLSGCENIT [GRR1] | 2.33 ± 0.083 | 2.7 ± 0.097 | 2.45 ± 0.094 | 2.65 ± 0.09 |
| DNATLTELVDKANIFQV [SSN2] | 3.09 ± 0.15 | 3.56 ± 0.12 | 3.21 ± 0.085 | 3.11 ± 0.11 |
| DNDGFSFLMRQFTRFFL [ECM29] | 1.63 ± 0.047 | 2.19 ± 0.059 | 1.87 ± 0.075 | 2.43 ± 0.047 |
| DNDIMNLGSRTKNNTQA [SSN3] | 2.91 ± 0.038 | 2.92 ± 0.038 | 2.76 ± 0.028 | 2.977 ± 0.029 |
| DNIGEIDESLFNLLILS [YCG1] | 2.96 ± 0.13 | 3.02 ± 0.11 | 2.31 ± 0.16 | 3.1 ± 0.14 |
| DNVIVINHKINNKITQL [SIR3] | 2.08 ± 0.057 | 2.13 ± 0.05 | 2.08 ± 0.053 | 2.2 ± 0.04 |
| DNVSKNALDKLRNNLNS [YCG1] | 3.23 ± 0.12 | 3.19 ± 0.13 | 2.24 ± 0.29 | 3.01 ± 0.17 |
| DPALLRPGRIDRKIEFP [RPT6] | 3.18 ± 0.075 | 3.32 ± 0.077 | 3.05 ± 0.057 | 3.26 ± 0.048 |
| DPETTATQKESLEMVPK [RGR1] | 3.12 ± 0.063 | 3.07 ± 0.054 | 2.94 ± 0.048 | 3.11 ± 0.046 |
| DPGRYNKVCRIEAASTT [RPB8] | 2.41 ± 0.093 | 2.53 ± 0.099 | 2.48 ± 0.1 | 2.73 ± 0.082 |
| DPKFRRNHKHALHGTAK [RPL29] | 2.34 ± 0.025 | 2.602 ± 0.022 | 2.478 ± 0.024 | 2.636 ± 0.019 |
| DPKFVNSLLAKLKDSKK [YML103C/NUP188] | 2.54 ± 0.2 | 2.86 ± 0.1 | 1.99 ± 0.15 | 2.54 ± 0.082 |
| DPKTSLRIVKPTVSLTI [RPC82] | 2.3 ± 0.095 | 2.3 ± 0.084 | 2.56 ± 0.14 | 3.34 ± 0.079 |
| DPPIIIFINYKQTADWL [PRP28] | 1.43 ± 0.031 | 1.61 ± 0.048 | 1.9 ± 0.072 | 1.95 ± 0.042 |
| DPPKGILLYGPPGTGKT [RPT1] | 2.94 ± 0.28 | 2.71 ± 0.28 | – | 3.23 ± 0.17 |
| DPSLNLKLLAKSHVLLA [BRR2] | 2.02 ± 0.085 | 2.44 ± 0.1 | 1.79 ± 0.21 | 2.06 ± 0.15 |
